What was measured:
Assay in all cases: MST; His-tagged DHS variants labelled with RED-tris-NTA 2nd Generation, 8.32 nM; eIF5A titrated, sixteen dilutions 0.00175–57.5 μM; 50 mM Tris, 200 mM NaCl, 5 mM β-ME pH 8; Monolith NT.115, 40% excitation power, 60% MST power; no NAD or SPD
Conditions in all cases: both partners purified
[1] = biological target: T1, deoxyhypusine synthase S240A, His-tagged (human, UniProt P49366 1-369, S240A, RED-tris-NTA 2nd Generation dye on the His tag)
T1 construct: human deoxyhypusine synthase, Uniprot P49366, residues 1-369, site-directed mutant of the pET24d full-length construct; also called DHS S240A; source: E. coli, purified; not shown: 6xHis, N-terminal, kept
T1 sequence (looked up): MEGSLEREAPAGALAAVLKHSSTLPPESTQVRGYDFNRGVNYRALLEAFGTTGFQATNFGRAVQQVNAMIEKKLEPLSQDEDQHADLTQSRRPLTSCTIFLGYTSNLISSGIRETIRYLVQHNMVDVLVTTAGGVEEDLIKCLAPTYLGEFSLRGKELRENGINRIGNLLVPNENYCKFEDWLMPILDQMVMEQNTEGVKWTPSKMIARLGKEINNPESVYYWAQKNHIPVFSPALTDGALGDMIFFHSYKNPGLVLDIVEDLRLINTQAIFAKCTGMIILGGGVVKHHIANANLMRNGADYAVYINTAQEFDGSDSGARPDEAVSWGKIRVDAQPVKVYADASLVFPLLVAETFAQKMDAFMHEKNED

[2] = biological target: T2, deoxyhypusine synthase F272A, His-tagged (human, UniProt P49366 1-369, F272A, RED-tris-NTA 2nd Generation dye on the His tag)
T2 construct: human deoxyhypusine synthase, Uniprot P49366, residues 1-369, site-directed mutant of the pET24d full-length construct; also called DHS F272A; source: E. coli, purified; not shown: 6xHis, N-terminal, kept
T2 sequence (looked up): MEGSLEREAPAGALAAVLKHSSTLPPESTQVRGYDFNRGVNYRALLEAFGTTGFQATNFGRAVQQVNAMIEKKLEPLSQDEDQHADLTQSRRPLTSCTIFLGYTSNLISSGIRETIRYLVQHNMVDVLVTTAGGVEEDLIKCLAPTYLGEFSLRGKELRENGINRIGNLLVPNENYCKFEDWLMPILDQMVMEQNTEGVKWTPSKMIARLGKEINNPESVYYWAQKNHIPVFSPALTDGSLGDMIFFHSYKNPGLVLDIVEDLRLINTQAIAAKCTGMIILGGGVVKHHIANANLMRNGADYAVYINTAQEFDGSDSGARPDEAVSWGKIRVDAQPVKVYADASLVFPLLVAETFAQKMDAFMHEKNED

[3] = biological target: T3, deoxyhypusine synthase Y176A, His-tagged (human, UniProt P49366 1-369, Y176A, RED-tris-NTA 2nd Generation dye on the His tag)
T3 construct: human deoxyhypusine synthase, Uniprot P49366, residues 1-369, site-directed mutant of the pET24d full-length construct; also called DHS Y176A; source: E. coli, purified; not shown: 6xHis, N-terminal, kept
T3 sequence (looked up): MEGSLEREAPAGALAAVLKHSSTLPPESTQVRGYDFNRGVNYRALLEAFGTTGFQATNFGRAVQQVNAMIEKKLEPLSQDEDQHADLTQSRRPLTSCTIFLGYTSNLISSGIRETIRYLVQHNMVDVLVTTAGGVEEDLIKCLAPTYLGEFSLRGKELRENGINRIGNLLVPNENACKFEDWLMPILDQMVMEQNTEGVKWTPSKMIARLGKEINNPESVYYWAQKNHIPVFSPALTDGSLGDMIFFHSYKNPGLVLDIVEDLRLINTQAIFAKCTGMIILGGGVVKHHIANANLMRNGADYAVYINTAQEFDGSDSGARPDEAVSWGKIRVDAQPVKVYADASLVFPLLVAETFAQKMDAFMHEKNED

B1: eukaryotic translation factor 5A (eIF5A-1), residues 15-151 (domain or fragment)
chain: not shown
notes: human eIF5A1, residues 15-151, from pET28-MHL (Addgene); The purification protocol removes the tag with TEV; source: E. coli, purified (HisTrap, TEV cleavage, reverse HisTrap, SEC); not shown: His tag, N-terminal, cleaved
Kd [1]: 2660 ± 434 nM | Kd [2]: 504 ± 154 nM | Kd [3]: 1090 ± 548 nM

Source: paper PMC10042821, “Cryo-EM structure of human eIF5A-DHS complex reveals the molecular basis of hypusination-associated neurodegenerative disorders” (Nature Communications, 2023)
